{"source": "patent US20190382493A1", "about": "(CYTOMX THERAPEUTICS, published 2019)", "key": {"[1]": {"biological_target": "T1, human PDL1-Fc (R & D Systems) (human, UniProt Q9NZQ7 19-239)", "T1 construct": "Bought reagent; not shown: Fc part of the bought fusion protein; not described", "T1 sequence (Q9NZQ7 19-239 limits assumed)": "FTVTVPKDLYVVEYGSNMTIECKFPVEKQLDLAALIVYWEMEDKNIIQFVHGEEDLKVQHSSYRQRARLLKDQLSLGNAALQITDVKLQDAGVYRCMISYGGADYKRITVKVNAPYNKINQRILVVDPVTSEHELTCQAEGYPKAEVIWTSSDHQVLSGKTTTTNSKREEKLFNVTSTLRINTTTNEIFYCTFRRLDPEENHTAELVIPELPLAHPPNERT", "assay": "ELISA, PDL1-Fc adsorbed, anti-human IgG (Fab specific)-HRP", "method": "Bound antibody was visualized with an anti-human IgG-HRP conjugate, Fab specific, (Sigma, St Louis, Mo.; Cat # A0293-1ML) and developed with the chromogenic substrate TMB. […] Table 5 provides the SEQ ID NOs for the nucleic acid sequences and amino acids sequences of the respective variable heavy chains.\n(§1) Bound antibody was visualized with an anti-human IgG-HRP conjugate, Fab specific, (Sigma, St Louis, Mo.; Cat # A0293-1ML) and developed with the chromogenic substrate TMB."}, "[2]": {"biological_target": "T2, human B7-1-Fc (R&D Systems) (human, UniProt P33681 35-242)", "T2 construct": "not shown: Fc part of the bought fusion protein; not described", "T2 sequence (looked up)": "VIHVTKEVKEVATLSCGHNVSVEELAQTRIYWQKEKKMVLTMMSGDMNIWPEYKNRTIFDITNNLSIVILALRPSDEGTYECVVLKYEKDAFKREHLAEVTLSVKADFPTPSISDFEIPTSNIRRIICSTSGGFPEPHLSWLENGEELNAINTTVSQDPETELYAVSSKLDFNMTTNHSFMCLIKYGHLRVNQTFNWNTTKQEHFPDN", "assay": "ELISA, antigen adsorbed", "method": "as §1"}, "[3]": {"biological_target": "T3, human CD28-Fc (R&D Systems) (human, UniProt P10747 19-152)", "T3 construct": "not shown: Fc part of the bought fusion protein; not described", "assay": "ELISA, antigen adsorbed", "method": "as §1"}, "[4]": {"biological_target": "T2, human B7-1-Fc (R&D Systems)", "assay": "Fab-phage ELISA, antigen adsorbed", "from_the_text": "Forty seven (47) individual isolates were chosen from the final pool. […] Briefly, the antigens were adsorbed to the wells of a 96-well ELISA plate, each ligand on a separate plate. Phage were applied to correlative wells on each plate and allowed to bind. Bound phage were visualized with an anti-M13-HRP conjugate and developed with the chromogenic substrate TMB. Based on the results of the ELISA and DNA sequence, 6 unique clones with matured heavy variable CDR3 domains and 10 heavy variable CDR2 domains were chosen for further study. […] Table 4 lists the heavy variable domains encoded by the clones and SEQ ID NOs for the nucleic acid sequences and amino acid sequences of their respective heavy chains."}, "mouse PDL1 (R&D Systems)": {"biological_target": "T4, mouse PDL1 (R&D Systems) (mouse, UniProt Q9EP73 19-238)", "T4 construct": "also called mPDL1; murine PDL1", "T4 sequence (Q9EP73 19-238 limits assumed)": "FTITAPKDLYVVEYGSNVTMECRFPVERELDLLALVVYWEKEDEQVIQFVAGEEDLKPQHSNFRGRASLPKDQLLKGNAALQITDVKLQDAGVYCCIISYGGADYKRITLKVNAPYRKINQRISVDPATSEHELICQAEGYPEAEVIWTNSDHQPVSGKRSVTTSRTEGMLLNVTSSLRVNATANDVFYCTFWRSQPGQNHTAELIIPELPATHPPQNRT", "assay": "phage ELISA on adsorbed mouse PDL1, PD1-Fc as competitor", "from_the_text": "Bound phage were visualized with an anti-M13-HRP conjugate (GE Healthcare, Piscataway, N.Y.) and developed with the chromogenic substrate tetramethyl benzidine (TMB) (Thermo Scientific, Rockford, Ill.)."}, "[5]": {"biological_target": "T5, anti-PDL1 antibody C5H9v2", "T5 construct": "IgG; also called anti-PDL1 parental antibody C5H9v2", "assay": "binding of antibody to peptide-displaying clones"}, "[6]": {"biological_target": "Fab of anti-PDL1 antibody C5H9v2", "assay": "binding of Fab to peptide-displaying clones"}}, "data": [{"binder": "anti-PDL1 antibody C5B10 (antibody, V domains shown, Fully human IgG; also called PDL1 C5B10) VH: EVQLLESGGGLVQPGGSLRLSCAASGFTFSSYAMSWVRQAPGKGLEWVSSIWRNGIVTVYADSVKGRFTISRDNSKNTLYLQMNSLRAEDTAVYYCAKWSAGYDYWGQGTLVTVSS VL: DIQMTQSPSSLSASVGDRVTITCRASQSISSYLNWYQQKPGKAPKLLIYYASTLQSGVPSRFSGSGSGTDFTLTISSLQPEDFATYYCQQDNGYPSTFGQGTKVEIKR", "values": [{"measurement": "binding result", "setting": "[1]", "value": "binds"}, {"measurement": "binding result", "setting": "[2]", "value": "no binding"}, {"measurement": "binding result", "setting": "[3]", "value": "no binding"}]}, {"binder": "PDL1 G12 Fab-phage (Fab, V domains shown) VH: EVQLLESGGGLVQPGGSLRLSCAASGFTFSSYAMSWVRQAPGKGLEWVSSIWYQGLVTVYDSVKGRFTISRDNSKNTLYLQMNSLRAEDTAVYYCAKSSAGFDYWGQGTLVTVSS VL: DIQMTQSPSSLSASVGDRVTITCRASQSISSYLNWYQQKPGKAPKLLIYYASTLQSGVPSRFSGSGSGTDFTLTISSLQPEDFATYYCQQDNGYPSTFGQGTKVEIKR", "values": [{"measurement": "binding result", "setting": "[4]", "value": "no binding"}]}, {"binder": "PDL1 A05 Fab-phage (Fab, V domains shown) VH: EVQLLESGGGLVQPGGSLRLSCAASGFTFSSYAMSWVRQAPGKGLEWVSSIWKQGIVTVYDSVKGRFTISRDNSKNTLYLQMNSLRAEDTAVYYCAKSSAGFDYWGQGTLVTV VL: DIQMTQSPSSLSASVGDRVTITCRASQSISSYLNWYQQKPGKAPKLLIYYASTLQSGVPSRFSGSGSGTDFTLTISSLQPEDFATYYCQQDNGYPSTFGQGTKVEIKR", "values": [{"measurement": "binding result", "setting": "[4]", "value": "no binding"}]}, {"binder": "PDL1 E11 Fab-phage (Fab, V domains shown) VH: EVQLLESGGGLVQPGGSLRLSCAASGFTFSSYAMSWVRQAPGKGLEWVSDIWKQGFATADSVKGRFTISRDNSKNTLYLQMNSLRAEDTAVYYCAKSSAGFDYWGQGTLVTVSS VL: DIQMTQSPSSLSASVGDRVTITCRASQSISSYLNWYQQKPGKAPKLLIYYASTLQSGVPSRFSGSGSGTDFTLTISSLQPEDFATYYCQQDNGYPSTFGQGTKVEIKR", "values": [{"measurement": "binding result", "setting": "[4]", "value": "no binding"}]}, {"binder": "PDL1 G09 Fab-phage (Fab, V domains shown) VH: EVQLLESGGGLVQPGGSLRLSCAASGFTFSSYAMSWVRQAPGKGLEWVSEIVATGILTSYDSVKGRFTISRDNSKNTLYLQMNSLRAEDTAVYYCAKSSAGFDYWGQGTLVTVSS VL: DIQMTQSPSSLSASVGDRVTITCRASQSISSYLNWYQQKPGKAPKLLIYYASTLQSGVPSRFSGSGSGTDFTLTISSLQPEDFATYYCQQDNGYPSTFGQGTKVEIKR", "values": [{"measurement": "binding result", "setting": "[4]", "value": "no binding"}]}, {"binder": "PDL1 D01 Fab-phage (Fab, V domains shown) VH: EVQLLESGGGLVQPGGSLRLSCAASGFTFSSYAMSWVRQAPGKGLEWVSSIWKQGIVTVYDSVKGRFTISRDNSKNTLYLQMNSLRAEDTAVYYCAKSSAGFDYWGQGTLVTVSS VL: DIQMTQSPSSLSASVGDRVTITCRASQSISSYLNWYQQKPGKAPKLLIYYASTLQSGVPSRFSGSGSGTDFTLTISSLQPEDFATYYCQQDNGYPSTFGQGTKVEIKR", "values": [{"measurement": "binding result", "setting": "[4]", "value": "no binding"}]}, {"binder": "PDL1 C05 Fab-phage (Fab, V domains shown) VH: EVQLLESGGGLVQPGGSLRLSCAASGFTFSSYAMSWVRQAPGKGLEWVSSIWRNGIVTVYDSVKGRFTISRDNSKNTLYLQMNSLRAEDTAVYYCAKSSAGFDYWGQGTLVTVSS VL: DIQMTQSPSSLSASVGDRVTITCRASQSISSYLNWYQQKPGKAPKLLIYYASTLQSGVPSRFSGSGSGTDFTLTISSLQPEDFATYYCQQDNGYPSTFGQGTKVEIKR", "values": [{"measurement": "binding result", "setting": "[4]", "value": "no binding"}]}, {"binder": "PDL1 H06 Fab-phage (Fab, V domains shown) VH: EVQLLESGGGLVQPGGSLRLSCAASGFTFSSYAMSWVRQAPGKGLEWVSSIWRQGLATAYDSVKGRFTISRDNSKNTLYLQMNSLRAEDTAVYYCAKSSAGFDYWGQGTLVTVSS VL: DIQMTQSPSSLSASVGDRVTITCRASQSISSYLNWYQQKPGKAPKLLIYYASTLQSGVPSRFSGSGSGTDFTLTISSLQPEDFATYYCQQDNGYPSTFGQGTKVEIKR", "values": [{"measurement": "binding result", "setting": "[4]", "value": "no binding"}]}, {"binder": "anti-PDL1 antibody C5E10 (antibody, V domains shown, Fully human IgG) VH: EVQLLESGGGLVQPGGSLRLSCAASGFTFSSYAMSWVRQAPGKGLEWVSSIWRNGIVTVYADSVKGRFTISRDNSKNTLYLQMNSLRAEDTAVYYCAKWSKGFDYWGQGTLVTVSS VL: DIQMTQSPSSLSASVGDRVTITCRASQSISSYLNWYQQKPGKAPKLLIYYASTLQSGVPSRFSGSGSGTDFTLTISSLQPEDFATYYCQQDNGYPSTFGQGTKVEIKR", "values": [{"measurement": "binding result", "setting": "[1]", "value": "binds"}, {"measurement": "binding result", "setting": "[2]", "value": "no binding"}, {"measurement": "binding result", "setting": "[3]", "value": "no binding"}]}, {"binder": "PDL1 D08 Fab-phage (Fab, V domains shown) VH: EVQLLESGGGLVQPGGSLRLSCAASGFTFSSYAMSWVRQAPGKGLEWVSSIWRQGLATAYDSVKGRFTISRDNSKNTLYLQMNSLRAEDTAVYYCAKSSAGFDYWGQGTLVTVSS VL: DIQMTQSPSSLSASVGDRVTITCRASQSISSYLNWYQQKPGKAPKLLIYYASTLQSGVPSRFSGSGSGTDFTLTISSLQPEDFATYYCQQDNGYPSTFGQGTKVEIKR", "values": [{"measurement": "binding result", "setting": "[4]", "value": "no binding"}]}, {"binder": "anti-PDL1 antibody G12E10 (antibody, V domains shown, Fully human IgG; also called PDL1 G12E10) VH: EVQLLESGGGLVQPGGSLRLSCAASGFTFSSYAMSWVRQAPGKGLEWVSSIWYQGLVTVYADSVKGRFTISRDNSKNTLYLQMNSLRAEDTAVYYCAKWSKGFDYWGQGTLVTVSS VL: DIQMTQSPSSLSASVGDRVTITCRASQSISSYLNWYQQKPGKAPKLLIYYASTLQSGVPSRFSGSGSGTDFTLTISSLQPEDFATYYCQQDNGYPSTFGQGTKVEIKR", "values": [{"measurement": "binding result", "setting": "[1]", "value": "binds"}]}, {"binder": "anti-PDL1 antibody G12H9 (antibody, V domains shown, Fully human IgG; also called PDL1 G12H9) VH: EVQLLESGGGLVQPGGSLRLSCAASGFTFSSYAMSWVRQAPGKGLEWVSSIWYQGLVTVYADSVKGRFTISRDNSKNTLYLQMNSLRAEDTAVYYCAKWSAAFDYWGQGTLVTVSS VL: DIQMTQSPSSLSASVGDRVTITCRASQSISSYLNWYQQKPGKAPKLLIYYASTLQSGVPSRFSGSGSGTDFTLTISSLQPEDFATYYCQQDNGYPSTFGQGTKVEIKR", "values": [{"measurement": "binding result", "setting": "[1]", "value": "binds"}]}, {"binder": "PDL1 C10 Fab-phage (Fab, V domains shown) VH: EVQLLESGGGLVQPGGSLRLSCAASGFTFSSYAMSWVRQAPGKGLEWVSDIWKQGMVTVYDSVKGRFTISRDNSKNTLYLQMNSLRAEDTAVYYCAKSSAGFDYWGQGTLVTVSS VL: DIQMTQSPSSLSASVGDRVTITCRASQSISSYLNWYQQKPGKAPKLLIYYASTLQSGVPSRFSGSGSGTDFTLTISSLQPEDFATYYCQQDNGYPSTFGQGTKVEIKR", "values": [{"measurement": "binding result", "setting": "[4]", "value": "no binding"}]}, {"binder": "PDL1 G10 Fab-phage (Fab, V domains shown) VH: EVQLLESGGGLVQPGGSLRLSCAASGFTFSSYAMSWVRQAPGKGLEWVSSIGRQGLITVYDSVKGRFTISRDNSKNTLYLQMNSLRAEDTAVYYCAKSSAGFDYWGQGTLVTVSS VL: DIQMTQSPSSLSASVGDRVTITCRASQSISSYLNWYQQKPGKAPKLLIYYASTLQSGVPSRFSGSGSGTDFTLTISSLQPEDFATYYCQQDNGYPSTFGQGTKVEIKR", "values": [{"measurement": "binding result", "setting": "[4]", "value": "no binding"}]}, {"binder": "anti-PDL1 antibody G12B10 (antibody, V domains shown, Fully human IgG; also called PDL1 G12B10) VH: EVQLLESGGGLVQPGGSLRLSCAASGFTFSSYAMSWVRQAPGKGLEWVSSIWYQGLVTVYADSVKGRFTISRDNSKNTLYLQMNSLRAEDTAVYYCAKWSAGYDYWGQGTLVTVSS VL: DIQMTQSPSSLSASVGDRVTITCRASQSISSYLNWYQQKPGKAPKLLIYYASTLQSGVPSRFSGSGSGTDFTLTISSLQPEDFATYYCQQDNGYPSTFGQGTKVEIKR", "values": [{"measurement": "binding result", "setting": "[1]", "value": "binds"}]}, {"binder": "mouse PD1-Fc (R&D Systems) (Fc fusion, UniProt Q02242 25-167, looked up, Bought reagent; also called mPD1; not shown: Fc part of the bought fusion protein; not described) LEVPNGPWRSLTFYPAWLTVSEGANATFTCSLSNWSEDLMLNWNRLSPSNQTEKQAAFCNGLSQPVQDARFQIIQLPNRHDFHMNILDTRRNDSGIYLCGAISLHPKAKIEESPGAELVVTERILETSTRYPSPSPKPEGRFQ", "values": [{"measurement": "binding result", "setting": "mouse PDL1 (R&D Systems)", "value": "binds"}]}, {"binder": "YLPCHFVPIGACNNK", "note": "[masking moiety PL14]", "values": [{"measurement": "binding result", "setting": "[5]", "value": "binds"}, {"measurement": "binding result", "setting": "[6]", "value": "binds"}]}, {"binder": "LCDLFKLREFPYCMG", "note": "[masking moiety PL13]", "values": [{"measurement": "binding result", "setting": "[5]", "value": "binds"}, {"measurement": "binding result", "setting": "[6]", "value": "binds"}]}]}
